Laboratory results reported in US6808893 (Johns Hopkins, dated 2004).

Columns and labels:
[1] = target: T1, GLT-1 glutamate transporter (rat, UniProt P31596 1-573); test: co-immunoprecipitation from rat brain extract, Western blotting
T1 construct: whole, on cells; Native protein in solubilized rat brain

[2] = target: T2, GLAST glutamate transporter (rat, UniProt P24942 1-543); test: as above
T2 construct: whole, on cells; Native protein in solubilized rat brain
T2 sequence (looked up): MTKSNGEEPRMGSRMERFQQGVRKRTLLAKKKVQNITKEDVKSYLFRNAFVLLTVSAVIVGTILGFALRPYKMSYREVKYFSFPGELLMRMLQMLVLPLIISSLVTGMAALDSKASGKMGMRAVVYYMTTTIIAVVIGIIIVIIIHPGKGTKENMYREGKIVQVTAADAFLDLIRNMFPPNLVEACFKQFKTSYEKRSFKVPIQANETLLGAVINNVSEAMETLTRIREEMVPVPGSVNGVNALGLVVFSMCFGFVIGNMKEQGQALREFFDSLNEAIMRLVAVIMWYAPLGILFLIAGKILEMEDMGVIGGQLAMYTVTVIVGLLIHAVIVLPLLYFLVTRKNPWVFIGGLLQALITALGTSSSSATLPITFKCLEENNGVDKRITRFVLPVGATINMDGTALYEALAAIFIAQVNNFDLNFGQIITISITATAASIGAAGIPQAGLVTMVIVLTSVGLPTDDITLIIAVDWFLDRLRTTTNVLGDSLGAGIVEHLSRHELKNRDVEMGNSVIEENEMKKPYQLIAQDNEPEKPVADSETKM

[3] = target: T3, EAAT4, full-length glutamate transporter (rat, UniProt O35921 1-561); test: as above
T3 construct: whole, on cells; tested from detergent lysates; also called rEAAT4; rat EAAT4
T3 sequence (looked up): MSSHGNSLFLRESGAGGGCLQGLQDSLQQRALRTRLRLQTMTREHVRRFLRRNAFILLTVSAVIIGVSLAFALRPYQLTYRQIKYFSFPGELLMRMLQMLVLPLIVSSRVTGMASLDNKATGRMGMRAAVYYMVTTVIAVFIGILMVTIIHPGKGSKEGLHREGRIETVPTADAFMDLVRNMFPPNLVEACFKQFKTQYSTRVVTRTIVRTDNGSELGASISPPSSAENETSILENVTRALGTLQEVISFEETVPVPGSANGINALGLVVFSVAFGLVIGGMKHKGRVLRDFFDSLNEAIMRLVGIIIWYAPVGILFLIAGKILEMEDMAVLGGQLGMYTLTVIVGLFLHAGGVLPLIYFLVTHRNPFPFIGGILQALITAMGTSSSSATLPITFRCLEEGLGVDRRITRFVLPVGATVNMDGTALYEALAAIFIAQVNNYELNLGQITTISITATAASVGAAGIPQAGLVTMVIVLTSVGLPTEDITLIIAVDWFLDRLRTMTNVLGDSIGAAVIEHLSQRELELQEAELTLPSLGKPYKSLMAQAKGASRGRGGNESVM

[4] = target: the molecule itself; test: immunoblot of tissue homogenates and purified protein
[5] = target: T4, myc-tagged full-length GTRAP4-41 (rat, UniProt Q9QWN8 2-2388); test: co-immunoprecipitation from transfected HEK 293T cells
T4 construct: tested from solubilized cell extract; also called myc-tagged GTRAP4-41; not shown: myc tag of the myc-tagged pRK5 vector
T4 sequence (Q9QWN8 other isoform, or with tags, fused parts or gaps): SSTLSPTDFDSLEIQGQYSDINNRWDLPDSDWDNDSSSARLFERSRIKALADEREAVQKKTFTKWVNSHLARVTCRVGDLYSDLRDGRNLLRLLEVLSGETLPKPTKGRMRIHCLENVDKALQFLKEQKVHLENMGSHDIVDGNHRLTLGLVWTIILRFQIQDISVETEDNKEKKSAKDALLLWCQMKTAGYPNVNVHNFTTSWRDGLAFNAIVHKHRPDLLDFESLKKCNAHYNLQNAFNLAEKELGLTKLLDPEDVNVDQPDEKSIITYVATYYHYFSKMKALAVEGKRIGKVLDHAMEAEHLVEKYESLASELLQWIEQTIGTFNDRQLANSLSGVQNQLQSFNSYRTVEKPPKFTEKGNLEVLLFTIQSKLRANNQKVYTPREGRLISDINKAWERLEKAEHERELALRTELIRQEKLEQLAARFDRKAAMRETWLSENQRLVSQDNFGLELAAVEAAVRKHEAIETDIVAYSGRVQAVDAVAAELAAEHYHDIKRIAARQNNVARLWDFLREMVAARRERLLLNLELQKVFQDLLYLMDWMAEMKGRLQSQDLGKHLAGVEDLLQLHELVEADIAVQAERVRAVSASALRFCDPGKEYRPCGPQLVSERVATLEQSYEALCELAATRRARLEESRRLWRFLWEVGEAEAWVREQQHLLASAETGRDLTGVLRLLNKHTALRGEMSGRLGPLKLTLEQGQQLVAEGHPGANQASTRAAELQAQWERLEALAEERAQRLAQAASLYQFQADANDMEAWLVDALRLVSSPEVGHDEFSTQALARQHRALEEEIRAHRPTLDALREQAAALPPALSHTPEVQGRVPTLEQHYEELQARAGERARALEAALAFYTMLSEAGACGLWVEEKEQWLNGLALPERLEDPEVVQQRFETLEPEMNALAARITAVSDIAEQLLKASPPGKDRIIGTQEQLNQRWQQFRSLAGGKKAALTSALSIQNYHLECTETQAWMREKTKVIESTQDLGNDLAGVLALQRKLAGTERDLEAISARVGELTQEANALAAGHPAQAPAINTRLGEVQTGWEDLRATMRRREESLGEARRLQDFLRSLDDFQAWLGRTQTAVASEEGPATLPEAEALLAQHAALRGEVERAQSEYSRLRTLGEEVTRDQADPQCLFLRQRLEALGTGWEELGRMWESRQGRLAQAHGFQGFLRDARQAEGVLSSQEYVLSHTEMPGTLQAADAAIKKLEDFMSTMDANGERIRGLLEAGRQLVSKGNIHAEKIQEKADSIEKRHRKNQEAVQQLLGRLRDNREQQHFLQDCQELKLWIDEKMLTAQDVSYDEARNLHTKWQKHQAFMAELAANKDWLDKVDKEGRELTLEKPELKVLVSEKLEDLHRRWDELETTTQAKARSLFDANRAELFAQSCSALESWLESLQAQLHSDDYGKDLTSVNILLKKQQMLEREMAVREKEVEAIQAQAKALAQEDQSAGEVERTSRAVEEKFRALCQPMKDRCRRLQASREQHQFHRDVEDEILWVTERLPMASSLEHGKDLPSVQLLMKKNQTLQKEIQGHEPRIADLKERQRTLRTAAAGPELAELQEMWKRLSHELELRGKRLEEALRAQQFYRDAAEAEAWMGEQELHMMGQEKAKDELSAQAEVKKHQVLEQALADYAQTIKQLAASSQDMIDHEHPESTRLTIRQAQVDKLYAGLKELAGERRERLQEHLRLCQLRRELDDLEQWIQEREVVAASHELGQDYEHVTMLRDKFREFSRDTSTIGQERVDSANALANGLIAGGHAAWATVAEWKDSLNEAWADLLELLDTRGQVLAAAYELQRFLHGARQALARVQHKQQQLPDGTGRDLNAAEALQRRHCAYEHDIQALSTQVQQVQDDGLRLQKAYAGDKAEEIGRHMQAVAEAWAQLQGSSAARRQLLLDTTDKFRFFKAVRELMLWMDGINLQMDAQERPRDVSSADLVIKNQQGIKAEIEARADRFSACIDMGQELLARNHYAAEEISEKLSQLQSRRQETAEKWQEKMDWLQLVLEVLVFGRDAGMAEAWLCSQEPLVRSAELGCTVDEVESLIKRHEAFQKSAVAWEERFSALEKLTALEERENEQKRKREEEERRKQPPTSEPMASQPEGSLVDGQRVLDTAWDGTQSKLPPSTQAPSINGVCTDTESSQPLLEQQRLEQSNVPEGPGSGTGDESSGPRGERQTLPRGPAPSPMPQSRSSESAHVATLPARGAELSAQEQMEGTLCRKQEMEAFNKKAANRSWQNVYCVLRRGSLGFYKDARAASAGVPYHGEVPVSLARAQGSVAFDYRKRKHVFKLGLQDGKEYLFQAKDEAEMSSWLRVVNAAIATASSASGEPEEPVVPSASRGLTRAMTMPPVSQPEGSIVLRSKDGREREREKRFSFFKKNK

[6] = target: T5, GST (glutathione S-transferase) alone (UniProt P08515 1-218 = GST); test: cell-free binding to protein immobilized on glutathione-Sepharose
T5 construct: Control, immobilized on glutathione-Sepharose
T5 sequence (P08515 whole entry): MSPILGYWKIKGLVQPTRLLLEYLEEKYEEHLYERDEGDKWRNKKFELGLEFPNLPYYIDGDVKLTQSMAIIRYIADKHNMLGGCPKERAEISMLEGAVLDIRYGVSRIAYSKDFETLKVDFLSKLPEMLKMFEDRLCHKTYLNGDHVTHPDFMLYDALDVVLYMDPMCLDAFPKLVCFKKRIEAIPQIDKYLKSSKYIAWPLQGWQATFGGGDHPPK
Procedure: The interaction of GTRAP3-18 with EAAC1 was examined using in vitro and in vivo methods. For in vitro cell-free binding, EAAC1 was expressed as a fusion protein with glutathione S-transferase (GST), and GTRAP3-18 was produced and labeled with [^35S]-methionine by in vitro transcription and translation. Purified GST or GST-EAAC 1 fusion proteins immobilized on glutathione-Sepharose were incubated with [^35S]-labeled GTRAP3-18 protein. GTRAP3-18 specifically binds to immobilized GST-EAAC1 but not to GST alone, indicating an in vitro interaction.

[7] = target: T6, truncated EAAC1 lacking the interacting carboxy-terminal domain (lacking the last 93 amino acids) (UniProt P51907 1-430); test: co-immunoprecipitation from transfected HEK293 cells
T6 construct: domain: EAAC1 lacking the last 93 amino acids
T6 sequence (looked up): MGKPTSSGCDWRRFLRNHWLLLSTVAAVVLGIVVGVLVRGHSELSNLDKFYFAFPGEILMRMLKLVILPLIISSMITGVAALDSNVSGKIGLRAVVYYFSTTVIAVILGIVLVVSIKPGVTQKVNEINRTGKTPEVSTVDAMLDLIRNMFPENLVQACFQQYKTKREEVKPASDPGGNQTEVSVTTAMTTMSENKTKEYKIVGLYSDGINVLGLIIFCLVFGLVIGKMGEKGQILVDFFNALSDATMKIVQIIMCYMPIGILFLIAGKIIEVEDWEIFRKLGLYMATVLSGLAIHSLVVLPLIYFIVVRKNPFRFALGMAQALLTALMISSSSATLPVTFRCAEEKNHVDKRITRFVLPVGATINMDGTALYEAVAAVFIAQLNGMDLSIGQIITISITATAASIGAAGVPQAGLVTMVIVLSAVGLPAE
Procedure: (§1) Immunoprecipitation experiments were performed to test if EAAC1 and GTRAP3-18 interact in vivo. This was first examined in transfected HEK293 cells using amino-terminus c-myc tagged GTRAP3-18. EAAC1 is co-immunoprecipitated with c-myc-GTRAP3-18 in the cell extract prepared from co-expression cells but not from EAAC1 or c-myc-GTRAP3-18 single expression cells. […] This interaction was specific, since EAAT4, another neuronal glutamate transporter subtype, is not immunoprecipitated with c-myc-GTRAP3-18. Identical results are obtained using COS-7 and C6 glioma cell lines.

[8] = target: T3, EAAT4, full-length glutamate transporter; test: as above
Procedure: as §1

T1 sequence (P31596 whole entry): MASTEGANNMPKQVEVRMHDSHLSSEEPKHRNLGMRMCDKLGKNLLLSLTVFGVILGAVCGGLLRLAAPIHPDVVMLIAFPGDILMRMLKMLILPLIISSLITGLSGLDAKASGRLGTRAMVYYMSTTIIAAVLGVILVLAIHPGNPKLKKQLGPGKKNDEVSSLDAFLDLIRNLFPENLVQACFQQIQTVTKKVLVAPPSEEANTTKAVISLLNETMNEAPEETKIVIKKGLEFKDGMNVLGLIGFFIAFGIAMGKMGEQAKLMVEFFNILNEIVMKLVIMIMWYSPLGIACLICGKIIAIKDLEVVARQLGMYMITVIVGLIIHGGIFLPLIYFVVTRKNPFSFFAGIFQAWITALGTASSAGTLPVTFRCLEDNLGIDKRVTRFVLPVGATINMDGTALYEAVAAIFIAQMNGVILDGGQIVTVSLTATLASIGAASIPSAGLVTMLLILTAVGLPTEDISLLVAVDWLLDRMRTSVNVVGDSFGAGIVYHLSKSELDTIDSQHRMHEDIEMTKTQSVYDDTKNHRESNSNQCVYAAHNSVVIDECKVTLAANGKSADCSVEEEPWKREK

B1: GTRAP3-18 (glutamate transporter EAAC1 associated protein), full-length (other)
chain: MDVNLAPLRAWDDFFPGSDRFARPDFRDISKWNNRVVSNLLYYQTNYLVVAAMMISVVGFLSPFNMILGGIIVVLVFTGFVWAAHNKDILRRMKKQYPTAFVMVVMLASYFLISMFGGVMVFVFGITFPLLLMFIHASLRLRNLKNKLENKMEGIGLKKTPMGIILDALEQQEDSINKFADYISKARE
notes: Used for native GTRAP3-18 of rat brain and tissue homogenates, for 'purified GTRAP3-18 protein' and for GTRAP3-18 expressed where no tag is stated; also called rat JWA protein homologue
B1: no binding [1]; no binding [2]; no binding [3]. B1: binds [4].

B2: myc-tagged full-length GTRAP4-48 (other)
chain: MSIRLPHSIDRSASKKQSHLSSPIASWLSSLSSLGDSTPERTSPSHHRQPSDTSETTAGLVQRCVIIQKDQHGFGFTVSGDRIVLVQSVRPGGAAMKAGVKEGDRIIKVNGTMVTNSSHLEVVKLIKSGAYAALTLLGSSPPSVGVSGLQQNPSVAGVLRVNPIIPPPPPPPPLPPPQHITGPKPLQDPEVQKHATQILWNMLRQEEEELQDILPPCGETSQRTCEGRLSVDSQEADSGLDSGTERFPSISESLMNRNSVLSDPGLDSPQTSPVILARVAQHHRRQGSDAALLPLNHQGIDQSPKPLIIGPEEDYDPGYFNNESDIIFQDLEKLKSHPAYLVVFLRYILSQADPGPLLFYLCSEVYQQTNPKDSRSLGKDIWNIFLEKNAPLRVKIPEMLQAEIDLRLRNNEDPRNVLCEAQEAVMLEIQEQINDYRSKRTLGLGSLYGENDLLGLDGDPLRERQMAEKQLAALGDILSKYEEDRSAPMDFAVNTFMSHAGIRLRESRSSCTAEKTQSAPDKDKWLPFFPKTKKQSSNSKKEKDALEDKKRNPILRYIGKPKSSSQSIKPGNVRNIIQHFENSHQYDVPEPGTQRLSTGSFPEDLLESDSSRSEIRLGRSGSLKGREEMKRSRKAENVPRPRSDVDMDAAAEAARLHQSASSSASSLSTRSLENPTPPFTPKMGRRSIESPNLGFCTDVILPHLLEDDLGQLSDLEPEPEVQNWQHTVGKDVVANLTQREIDRQEVINELFVTEASHLRTLRVLDLIFYQRMRKENLMPREELARLFPNLPELIEIHNSWCEAMKKLREEGPIIRDISDPMLARFDGPAREELQQVAAQFCSYQSVALELIRTKQRKESRFQLFMQEAESHPQCRRLQLRDLIVSEMQRLTKYPLLLENIIKHTEGGTSEHEKLCRARDQCREILKFVNEAVKQTENRHRLEGYQKRLDATALERASNPLAAEFKSLDLTTRKMIHEGPLTWRISKDKTLDLQVLLLEDLVVLLQRQEERLLLKCHSKTAVGSSDSKQTFSPVLKLNAVLIRSVATDKRAFFIICTSELGPPQIYELVALTSSDKNIWMELLEEAVQNATKHPGAAPIPIHPSPPGSQEPAYQGSTSSRVEINDSEVYHTEKEPKKLPEGPGPEQRVQDKQLIAQGEPVQEEDEEELRTLPRAPPSLDGENRGIRTRDPVLLALTGPLLMEGLADAALEDVENLRHLILWSLLPGHTVKTQAAGEPEDDLTPTPSVVSITSHPWDPGSPGQAPTISDSTRLARPEGSQPEGEDVAVSSLAHLPPRTRSSGVWDSPELDRNPAAEAASTEPAASYKVVRKVSLLPGGGVGAAKVAGSNAIPDSGQSESELSEVEGGAQATGNCFYVSMPAGPLDSSTEPTGTPPSPSQCHSLPAWPTEPQPYRGVRGGQCSSLVRRDVDVIFHTIEQLTIKLHRLKDMELAHRELLKSLGGESSGGTTPVGSFHTEAARWTDYSLSPPAKEALASDSQNGQEQGSCPEEGSDIALEDSATDTAVSPGP
notes: tested from solubilized cell extract; also called myc-tagged GTRAP4-48; not shown: myc tag of the myc-tagged pRK5 vector
B2: no binding [5].

B3: [35S]-methionine labelled GTRAP3-18 made by in vitro transcription and translation (other)
chain: MDVNLAPLRAWDDFFPGSDRFARPDFRDISKWNNRVVSNLLYYQTNYLVVAAMMISVVGFLSPFNMILGGIIVVLVFTGFVWAAHNKDILRRMKKQYPTAFVMVVMLASYFLISMFGGVMVFVFGITFPLLLMFIHASLRLRNLKNKLENKMEGIGLKKTPMGIILDALEQQEDSINKFADYISKARE
modifications: labeled with [35S]-methionine
notes: also called [35S]-labeled GTRAP3-18 protein
B3: no binding [6].

B4: amino-terminus c-myc tagged GTRAP3-18 (other)
chain: MDVNLAPLRAWDDFFPGSDRFARPDFRDISKWNNRVVSNLLYYQTNYLVVAAMMISVVGFLSPFNMILGGIIVVLVFTGFVWAAHNKDILRRMKKQYPTAFVMVVMLASYFLISMFGGVMVFVFGITFPLLLMFIHASLRLRNLKNKLENKMEGIGLKKTPMGIILDALEQQEDSINKFADYISKARE
notes: Expressed in HEK293 (also COS-7 and C6 glioma) cells; also called c-myc-GTRAP3-18; not shown: c-myc tag at the amino-terminus
B4: no binding [7]; no binding [8].
